B1: SEQ ID NO 23 (VNAR clone displayed on phage) (VNAR)
VNAR: ARVDQTPQTITKETGESLTINCVLRDSNCALSNLYWYRKKSGSTNEESISKGGRYVETVNSGSKSFSLRINDLTVEDSGTYRCNVINFFAMECEYQVGDVYGDGTAVTVNA
notes: shark VNAR domain on M13 phage; coat-protein fusion not described
B2: SEQ ID NO 17 (VNAR clone displayed on phage) (VNAR)
VNAR: ARVDQTPQTITKETGESLTINCVLRDSNCALPSTYWYRKKSGSTNEESISKGGRYVETVNSGSKSFSLRINDLTVKDSGTYRCNVARHWTQSCAYHRDVYGGGTAVTVNA
notes: as for B1
B3: SEQ ID NO 13 (VNAR clone displayed on phage) (VNAR)
VNAR: ARVDQTPQTITKETGESLTINCVLRDSNCALPSTYRYRKKSGSTNEESISKGGRYVETVNSGSKSFSLRINDLTVEDSGTYRCKVTMVRGRGCYQPARGQDVYGGGTAVTVNA
notes: as for B1
B4: SEQ ID NO 18 (VNAR clone displayed on phage) (VNAR)
VNAR: ARVDQTPQTITKETGESLTINCVLRDSNCALPSTYWYRKKSGSTNEESISKGGRYVETVNSGSKSFSLRINDLTVKDSGTYRCNVQHIFQHNCYWFLYDVYGGGTAVTVNA
notes: as for B1
B5: SEQ ID NO 22 (VNAR clone displayed on phage) (VNAR)
VNAR: ARVDQTPQTITKETGESLTINCVLRDSNCALSSTYWYRKKSDSTNEESISKGGRYVETVNSGSKSFSLRINDLTVEDSGTYRCKVHSFNMDVCAEFQYSDVYGDGTAVTVNA
notes: as for B1
B6: SEQ ID NO 25 (VNAR clone displayed on phage) (VNAR)
VNAR: ARVDQTPQTITKETGESLTINCVLRDSNCALSNLYWYRKKSGSTNEESISLGGRYVETVNSGSKSFSLRINDLTVEDSGTYRCNVCLLQLAGYDSPYDVYGGGTAVTVNA
notes: as for B1
B7: SEQ ID NO 15 (VNAR clone displayed on phage) (VNAR)
VNAR: ARVDQTPQTITKETGESLTINCVLRDSNCALPSTYWYCKKSGSTNEESISKGGRYVETVNSGSKSFSLRINDLTVKDSGTYRCKVHVRAQSLCCQCWYGDVYGDGTAVTVNA
notes: as for B1
B8: SEQ ID NO 14 (VNAR clone displayed on phage) (VNAR)
VNAR: ARVDQTPQTITKETGESLTINCVLRDSNCALPSTYWYRKKSGSTNEESISKGGRYVETVNSGSKSFSLRINDLTVEDSGTYRCKVTFSAFEYCYVFKVQCDVYGDGTAVTVNA
notes: as for B1
B9: SEQ ID NO 19 (VNAR clone displayed on phage) (VNAR)
VNAR: ARVDQTPQTITKETGESLTINCVLRDSNCALPSTYWYRKKSGSTNEESISKGGRYVETVNSGSKSFSLRINDLTVEDSGTYRCNVGWSTQYYCVLPDVYGGGTAVTVNA
notes: as for B1
B10: SEQ ID NO 21 (VNAR clone displayed on phage) (VNAR)
VNAR: ARVDQTPQTITKETGESLTINCVLRDSNCALSSTYWYRKKSGSTNEESISKGGRYVETVNSGSKSFSLRINDLTVEDSGTYRCKVLTSQSQGGCVRVLYSDVYGDGTAVTVNA
notes: as for B1
B11: SEQ ID NO 24 (VNAR clone displayed on phage) (VNAR)
VNAR: ARVDQTPQTITKETGESLTINCVLRDSNCALSNLYWYRKKSGSTNEESISKGGRYVETVNSGSKSFSLRINDLTVKDSGTYRCNVLVSMFCQLAQDVYGDGTAVTVNA
notes: as for B1
B12: SEQ ID NO 20 (VNAR clone displayed on phage) (VNAR)
VNAR: ARVDQTPQTITKETGESLTINCVLRDSNCALPSTYWYRKKSGSTNEESISKGGRYVETVNSGSKSFSLRINDLTVEDSGTYRCNVYTSYCCSVADVYGGGTAVTVNA
notes: as for B1

The binders below were run against T1, recombinant human TfR1 (transferrin receptor 1) (human, UniProt P02786 89-760) (assay: phage ELISA).
T1 construct: Bought recombinant His-tagged protein; also called hTfR1
T1 sequence (P02786 89-760 limits assumed): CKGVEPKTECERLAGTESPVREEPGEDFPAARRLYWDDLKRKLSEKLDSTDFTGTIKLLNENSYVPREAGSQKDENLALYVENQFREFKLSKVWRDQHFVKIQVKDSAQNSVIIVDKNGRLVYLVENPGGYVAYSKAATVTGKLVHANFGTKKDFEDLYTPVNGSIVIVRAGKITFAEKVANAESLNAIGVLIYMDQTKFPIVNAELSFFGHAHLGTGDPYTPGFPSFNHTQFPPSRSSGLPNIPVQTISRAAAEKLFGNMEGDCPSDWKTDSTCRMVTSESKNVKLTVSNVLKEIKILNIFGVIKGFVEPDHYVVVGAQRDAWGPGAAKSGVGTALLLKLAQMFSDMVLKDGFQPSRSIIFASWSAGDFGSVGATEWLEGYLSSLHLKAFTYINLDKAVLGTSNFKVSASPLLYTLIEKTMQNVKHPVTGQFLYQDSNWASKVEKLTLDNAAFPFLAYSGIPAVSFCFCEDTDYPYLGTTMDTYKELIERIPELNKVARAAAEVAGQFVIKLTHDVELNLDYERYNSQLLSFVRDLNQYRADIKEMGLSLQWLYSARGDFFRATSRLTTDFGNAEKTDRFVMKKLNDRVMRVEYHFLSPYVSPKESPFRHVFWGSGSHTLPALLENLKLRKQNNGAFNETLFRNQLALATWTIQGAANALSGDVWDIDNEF

| Binder | binding result |
| --- | --- |
| B1 | binds |
| B2 | binds |
| B3 | binds |
| B4 | binds |
| B5 | binds |
| B6 | binds |
| B7 | binds |
| B8 | binds |
| B9 | binds |
| B10 | binds |
| B11 | binds |
| B12 | binds |

Each binder was assayed against T2, recombinant mouse TfR1 (transferrin receptor 1) (mouse, UniProt Q62351 89-763) (assay: phage ELISA).
T2 construct: Bought recombinant His-tagged protein; also called mTfR1
T2 sequence (Q62351 89-763 limits assumed): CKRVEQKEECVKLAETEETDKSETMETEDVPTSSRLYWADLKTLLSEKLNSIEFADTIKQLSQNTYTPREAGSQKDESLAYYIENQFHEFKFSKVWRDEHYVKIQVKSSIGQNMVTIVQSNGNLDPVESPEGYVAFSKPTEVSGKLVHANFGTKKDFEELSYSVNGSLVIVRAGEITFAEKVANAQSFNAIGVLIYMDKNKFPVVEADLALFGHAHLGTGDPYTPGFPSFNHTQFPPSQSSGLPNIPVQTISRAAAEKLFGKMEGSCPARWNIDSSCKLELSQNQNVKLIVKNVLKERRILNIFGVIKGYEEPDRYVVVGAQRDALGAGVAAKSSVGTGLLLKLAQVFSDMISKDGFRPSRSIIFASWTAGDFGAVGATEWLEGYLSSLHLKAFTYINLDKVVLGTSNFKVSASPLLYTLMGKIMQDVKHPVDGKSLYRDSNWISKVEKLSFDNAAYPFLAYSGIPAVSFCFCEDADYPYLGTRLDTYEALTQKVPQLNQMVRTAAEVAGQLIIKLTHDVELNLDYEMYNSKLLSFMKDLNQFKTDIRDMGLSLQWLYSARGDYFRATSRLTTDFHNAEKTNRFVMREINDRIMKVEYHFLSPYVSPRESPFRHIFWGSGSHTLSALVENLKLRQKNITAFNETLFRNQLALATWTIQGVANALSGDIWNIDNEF

| Binder | binding result |
| --- | --- |
| B1 | binds |
| B2 | binds |
| B3 | binds |
| B4 | binds |
| B5 | binds |
| B6 | binds |
| B7 | binds |
| B8 | binds |
| B9 | binds |
| B10 | binds |
| B11 | binds |
| B12 | binds |

Reference: patent US20220031857A1 (OSSIANIX, published 2022)
